Where a chain is given by its changes, count along the chain named. Names may count otherwise.
Key:
[1] = target: T1, StrepHA-SARAF_CytD-SGFP2 F228S (human, UniProt Q96BY9 195-339, F228S); test: co-IP; co-IP/HiBiT assay: SGFP2-fused proteins immunoprecipitated with anti-GFP pAb from HEK293 or HEK293 ALG-2KO lysates (with or without co-expressed FLAG-ALG-2); HKM, 1% Nonidet P-40, 10 mM NEM, 10 μM CaCl2; co-precipitated HiBiTHA-SARAF read by lytic HiBiT assay with LgBiT, normalised by StrepTactin-AP; settings: partners not purified
T1 construct: SARAF CytD, human, 195-339 a.a., F228S; also called F228S mutant; source: HEK293 or HEK293 ALG-2KO, transfected, in lysate; not shown: Twin-Strep, N-terminal, kept; 3xHA, N-terminal, kept; SGFP2, C-terminal, kept
T1 sequence (looked up): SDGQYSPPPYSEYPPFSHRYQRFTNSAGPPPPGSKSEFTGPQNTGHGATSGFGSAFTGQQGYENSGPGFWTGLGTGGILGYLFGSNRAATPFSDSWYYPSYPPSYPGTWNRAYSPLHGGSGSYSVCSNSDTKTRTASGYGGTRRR

[2] = target: T2, StrepHA-SARAF_CytD-SGFP2 (WT) (human, UniProt Q96BY9 195-339); test: as above; settings: partners not purified
T2 construct: SARAF cytosolic domain (CytD), human, 195-339 a.a; source: HEK293 or HEK293 ALG-2KO, transfected, in lysate; not shown: Twin-Strep, N-terminal, kept; 3xHA, N-terminal, kept; SGFP2, C-terminal, kept
T2 sequence (looked up): T1 sequence (looked up) with S34F

[3] = target: T3, SGFP2-fused SARAF partial fragment (SARAF-p) (human, UniProt Q96BY9 195-339); test: pull-down; SGFP2-fused proteins held on protein G magnetic beads via anti-GFP pAb; incubated with Nluc-ALG-2 (300 ng/mL) in buffer HKM, 0.2% Nonidet P-40, 0.1% gelatin, 100 μM CaCl2, 2 h, 4 °C; bound luciferase activity relative to Sec31A-p (100%); settings: one partner purified
T3 construct: source: HEK293 ALG-2KD, transfected, immunoprecipitated with anti-GFP pAb from cleared lysate
T3 sequence (looked up): T1 sequence (looked up) with S34F

B1: full-length HiBiTHA-SARAF F228S (natural protein, human, UniProt Q96BY9 31-339, looked up)
chain: WNDPDRMLLRDVKALTLHYDRYTTSRRLDPIPQLKCVGGTAGCDSYTPKVIQCQNKGWDGYDVQWECKTDLDIAYKFGKTVVSCEGYESSEDQYVLRGSCGLEYNLDYTELGLQKLKESGKQHGFASFSDYYYKWSSADSCNMSGLITIVVLLGIAFVVYKLFLSDGQYSPPPYSEYPPFSHRYQRFTNSAGPPPPGSKSEFTGPQNTGHGATSGFGSAFTGQQGYENSGPGFWTGLGTGGILGYLFGSNRAATPFSDSWYYPSYPPSYPGTWNRAYSPLHGGSGSYSVCSNSDTKTRTASGYGGTRRR
notes: signal peptide in the construct; SARAF, human, full length, HiBiTHA inserted after the signal peptide; F228S; source: HEK293, transfected, in lysate; not shown: HiBiT, internal (after residue 30), kept
- relative interaction activity (WT expressed as 100%) [1]: ~15 % of WT

B2: full-length HiBiTHA-SARAF (WT) (natural protein, human, UniProt Q96BY9 31-339, looked up)
chain: B1 chain with S198F
notes: signal peptide in the construct; SARAF, human, full length; HiBiT and 3xHA (HiBiTHA) inserted between the signal peptide and the N-terminus of mature SARAF (31-339 a.a.); construction is in the Supplementary Information; source: HEK293 or HEK293 ALG-2KO, transfected, in lysate; not shown: HiBiT, internal (after residue 30), kept
- fold enhancement, Ca2+ over 5 mM EGTA, HEK293 ALG-2KO cells [2]: 1.3 fold
- fold enhancement, Ca2+ over 5 mM EGTA, parental HEK293 cells [2]: 3.7 fold

B3: nanoluciferase (NanoLuc, Nluc)-fused ALG-2 (natural protein, UniProt O75340 1-191, looked up)
chain: MAAYSYRPGPGAGPGPAAGAALPDQSFLWNVFQRVDKDRSGVISDTELQQALSNGTWTPFNPVTVRSIISMFDRENKAGVNFSEFTGVWKYITDWQNVFRTYDRDNSGMIDKNELKQALSGFGYRLSDQFHDILIRKFDRQGRGQIAFDDFIQGCIVLQRLTDIFRRYDTDQDGWIQVSYEQYLSMVFSIV
notes: synthetic gene for bacterial expression in pET24d; The whole Nluc-ALG-2 fusion is deposited as LC381846; also called Nluc-ALG-2; NlucALG-2
- binding activity relative to Sec31A-p (100%) [3]: 71.5%

Source: paper PMC7504102, “The Penta-EF-Hand ALG-2 Protein Interacts with the Cytosolic Domain of the SOCE Regulator SARAF and Interferes with Ubiquitination” (International Journal of Molecular Sciences, 2020)
